Reference: patent publication US20170114108A1

Molecular target: H4 tail (residues 1-30) of the H4ac indicator (UniProt P62805)
Test: cell-based or functional assay

percent of cells discriminated from autofluorescence (FACS), H4ac indicator, 1 µM SAHA: 5 % of cells
percent of cells discriminated from autofluorescence (FACS), H4ac indicator, 2.5 µM SAHA: 20 % of cells
percent of cells discriminated from autofluorescence (FACS), H4ac indicator, 7.5 µM SAHA: 40 % of cells
percent of cells discriminated from autofluorescence (FACS), H4ac indicator, 10 µM SAHA: 45 % of cells
Sequence: TATA binding protein (TBP)-associated factor II (TAFII) bromodomain
